US10111948B2, “Synthetic hapten carrier compositions and methods” (TRIA BIOSCIENCE CORP., priority 2014, dated 2018)

B1: TCC^Nic4: trimeric coiled coil of three SEQ ID NO:13 monomers conjugated with average 4 nicotine 6-hexanoic acid per monomer (conjugate)
chain: KKIEKRIEKIEKRIKKIEKRIKKIEKRIKKIEKRIKKAKFVAAWTLKAAAYQNPTTYISVK
modifications: also: trimer (trimeric coiled coil of three monomers), ~4 nicotine 6-hexanoic acid haptens per monomer (sites not given here)

Key:
[1] = tested on: antisera isolated from TCC^Nic4 immunized mice; assay: competitive ELISA for specificity of nicotine binding by antisera
Experimental: FIG. 6 presents data showing specificity of nicotine binding by antisera isolated from TCC^Nic4 immunized mice determined by competitive ELISA for nicotine, cotinine, and acetylcholine.
Antibody affinity and the nicotine binding capacity of the anti-nicotine antibodies evoked in TCC^Nic4-immunized mice were examined. Mice were immunized with 2.5 μg TCC^Nic4 on days 0, 14, and 146, and antisera were obtained. Nicotine binding to antisera isolated from TCC^Nic4 immunized mice was determined by competitive ELISA for nicotine, cotinine, and acetylcholine.

mice = assay: nicotine distribution in serum/plasma and brain after nicotine injection in immunized mice; assay type: in vivo
Experimental: FIGS. 9A-C show the levels of nicotine in sera and brains of mice (n=5/group) immunized with PBS, TCC^Nic4 with and without alum and GLA-SE adjuvants, or KLH conjugated to nicotine (KLH^Nic22) with and without alum and GLA-SE adjuvants. Immunized mice were injected with a dose of nicotine tartrate equivalent to the nicotine in 3 cigarettes (1.2 μg). Five minutes later the mice were sacrificed, tissues removed, and the amount of nicotine in (A) sera and (B) brain were measured by mass spectrometry. (C) The calculated percent inhibition of nicotine entry into the brain is shown.
FIGS. 10A-B show comparative antibody responses between TCC^Nic4 and KLH^Nic100. C57Bl/6 mice were immunized with each conjugate in the absence and presence of GLA-SE adjuvant. […]
To test antibody function, TCC^Nic4 or KLH^Nic22 (non-adjuvanted; +Alum; or +GLA-SE) immunized mice were injected with free nicotine equivalent to 3 cigarettes. […] Nicotine was extracted from the plasma and brain tissues and then quantified by LC/MS. The amounts of nicotine in plasma (ng/ml) and brain (ng/g) were determined. […] Data were analyzed using GraphPad Prism (San Diego, Calif.). Statistically significant differences between 2 groups were calculated by Student's 2-tailed t-test on log transformed data and between 3 or more groups by 1-factor analysis of variance (ANOVA) followed by post-hoc analysis. […]

C57BL/6 mice [2] = assay: nicotine-induced hypoactivity (locomotor activity, open field); assay type: in vivo; conditions: 10 daily 10 μg nicotine injections, 7 day rest, 10 μg challenge
Experimental: C57Bl/6 mice were immunized with TCC^Nic4 and KLH^Nic100 in the absence and presence of GLA-SE adjuvant. Immunized mice were sensitized to nicotine with 10 daily injections (10 μg). Following a 7 day rest period, mice were challenged with nicotine (10 μg), and locomoter activity was monitored using infrared beam-equipped open field chambers. The PBS-immunized group was not challenged with nicotine.
Furthermore, mice immunized with TCC^Nic4 and KLH^Nic100 with and without GLA-SE as described above were evaluated for nicotine-induced hypoactive behavior with nicotine challenges as described in Rosenberg et al. (2013, Hum. Gene Ther. 24:595-603). Immunized mice were sensitized with 10 daily injections of 10 μg of nicotine. After a 7 day rest period, the mice were then challenged with 10 μg of nicotine, and locomotor activity was monitored using infrared beam-equipped open field chambers. The mice immunized with PBS were not challenged with nicotine.

C57BL/6 mice [3] = assay: anti-nicotine antibody titers by ELISA in immunized C57BL/6 mice; assay type: in vivo
Experimental: FIGS. 3A-B illustrate anti-nicotine antibody titers as measured by ELISA. C57Bl/6 mice (n=5/group) were immunized (days 0, 14, and 146) with 2.5 μg of the trimeric coiled-coil peptide vaccine comprising peptide monomers with 16 lysines conjugated to an average of 4 nicotines per monomer. Control groups were administered KLH-Nic22 or PBS. Vaccines were formulated with (A) Alum adjuvant or (B) GLA-SE adjuvant. Sera were collected at the indicated times and assayed for anti-nicotine antibodies by ELISA.
FIG. 5 illustrates titer to nicotine in mice (C57Bl/6 mice (n=5/group)) immunized with the indicated doses of TCC^Nic4 plus GLA-SE adjuvant. Day 35 sera were assayed for anti-nicotine antibodies by ELISA.
FIGS. 10A-B show comparative antibody responses between TCC^Nic4 and KLH^Nic100. C57Bl/6 mice were immunized with each conjugate in the absence and presence of GLA-SE adjuvant. (A) Serum was assayed for anti-nicotine antibody responses by ELISA. (B) Data showing serum sequestration of nicotine. Percent inhibition of nicotine entry into the brain is indicated.
Trimeric coiled coil structures comprising three peptide monomers having an amino acid sequence set forth in SEQ ID NO:13 were conjugated as described above with nicotine to provide constructs comprising an average of 0.6, 4, and 14 nicotine molecules per monomeric peptide. […] Sera were collected periodically for approximately 20 weeks after the primary immunization, and anti-nicotine antibody titers were determined by ELISA.
In the same experiment, groups of mice were immunized with three non-TCC nicotine carriers, FGK4.5^nic19 and IgG2^nic17 and KLH^nic22. […] Sera were collected and measured for anti-nicotine and anti-carrier antibody titers by ELISA using, respectively, nicotine conjugated BSA, non-conjugated trimeric coiled-coil peptide, and non-conjugated KLH, FGK4.5, and IgG2 carriers used in the respective vaccine composition. Each sample was assayed in triplicate wells along with standard control sera, and the mean midpoint and endpoint titers (+/−SEM) were determined. […]

[4] = serum nicotine binding capacity (inhibition RIA); conditions: serum of immunized mice
Experimental: Kd values were used to calculate total antibody concentrations according to the law of mass action equation: Kd=[Nic][Ig]/[Nic−Ig].
Plasma was assayed for nicotine binding capacity at various times following immunization. Plasma aliquots were spiked with increasing nicotine levels (0.0001-10 μM) (serum nicotine levels in heavy smokers is 100 ng/ml or 0.617 μM) and then subjected to inhibition RIA (with H^3-Nicotine as the tracer and non-radiolabeled nicotine as the inhibitor) to calculate the total nicotine binding IgG in serum (see, e.g., Moreno et al., 2010, Mol. Pharm. 7:431-41; Muller, 1983, Methods Enzymol. 92:589-601). Immobilized protein A was used to capture IgGs from the serum to separate them from free nicotine. Aliquots of both the protein A eluate and the serum supernatant were subjected to liquid scintillation counting to quantify the amount of tracer in each fraction.

[5] = relative Kd of serum IgG by competitive ELISA; assay type: binding, mice
Experimental: FIGS. 7A-B illustrate antibody avidities of antisera from mice immunized with TCC conjugated to nicotine.
Relative Kd values of serum IgG were determined by competitive ELISA. Dilutions of antiserum were prepared and incubated with soluble nicotine (0.0001-100 μM). After equilibrium was achieved, binding to bovine serum albumin (BSA) conjugated to nicotine was measured. […] Each sample was assayed in triplicate wells along with standard control sera, and the mean midpoint and endpoint titers (+/−SEM) were determined.

Molecule | binding by antibodies induced by TCC^Nic4 immunization ([1]; competitive ELISA) | IC50 relative to nicotine ([1]; competitor in competitive ELISA) [fold] | nicotine in sera and brain, immunogen compared with KLH^Nic22 (mice; combined with either adjuvant (Alum or GLA-SE), 5 min after nicotine injection) | circulating nicotine prevented from entering the brain (mice; plus GLA-SE adjuvant, nicotine dose equivalent to 3 cigarettes, 5 min) | hypoactivity behavior after nicotine challenge (C57BL/6 mice [2]; non-adjuvanted vaccine) | prevention of nicotine sensitization and hypoactivity behavior (C57BL/6 mice [2]; with GLA-SE adjuvant) | anti-nicotine antibody titer compared with KLH^Nic22 (C57BL/6 mice [3]; 2.5 μg on days 0, 14, 146, FIG. 3) | anti-nicotine antibody titers (C57BL/6 mice [3]; adjuvanted (Alum or GLA-SE), 2.5 μg on days 0, 14, 146, sera for approx. 20 weeks) | dose achieving the maximum anti-nicotine antibody response (C57BL/6 mice [3]; adjuvanted with GLA-SE, doses 0.1, 0.5, 1, 2.5 μg, day 35 sera) [ng] | specificity of antibodies induced by immunization ([1]; 2.5 μg on days 0, 14, 146) | nicotine binding capacity compared with control KLH conjugate [4] | antibody affinity compared to KLH^Nic22 ([5]; in the absence of adjuvant) | antibody affinity relative to antibodies evoked by KLH^Nic22 ([5]; in the presence of GLA-SE adjuvant) | Kd ([5]; in the presence of GLA-SE adjuvant, read-out: affinity of the antibodies evoked by immunization (Kd)) [nM]
CN1C(=O)CC[C@H]1c1cccnc1 [cotinine] | did not bind physiological concentrations | 1000 | – | – | – | – | – | – | – | – | – | – | – | –
B1 | – | – | superior immunogen | greater than 90% | hypoactivity observed | appeared equivalent in preventing nicotine sensitization and subsequent hypoactivity behavior | consistently greater | robust antibody titers | ≤ 100 | nicotine-specific | significantly larger | higher affinity antibodies | an order of magnitude greater | ~1
